Experimental data published in patent publication US12068729B2, “Anti-factor XII/XIIa antibodies and uses thereof” (Regeneron Pharmaceuticals, Inc., priority 2018, dated 2024).

T1: human FXII (Homo sapiens, UniProt P00748)
T1 construct: plasma purified human FXII and FXIIa proteins (Enzyme Research Laboratories); purchased Enzyme Research Laboratories 1212; host or cells: human plasma (said of the same vendor's proteins used as immunogen)
T1 sequence (P00748 20-615): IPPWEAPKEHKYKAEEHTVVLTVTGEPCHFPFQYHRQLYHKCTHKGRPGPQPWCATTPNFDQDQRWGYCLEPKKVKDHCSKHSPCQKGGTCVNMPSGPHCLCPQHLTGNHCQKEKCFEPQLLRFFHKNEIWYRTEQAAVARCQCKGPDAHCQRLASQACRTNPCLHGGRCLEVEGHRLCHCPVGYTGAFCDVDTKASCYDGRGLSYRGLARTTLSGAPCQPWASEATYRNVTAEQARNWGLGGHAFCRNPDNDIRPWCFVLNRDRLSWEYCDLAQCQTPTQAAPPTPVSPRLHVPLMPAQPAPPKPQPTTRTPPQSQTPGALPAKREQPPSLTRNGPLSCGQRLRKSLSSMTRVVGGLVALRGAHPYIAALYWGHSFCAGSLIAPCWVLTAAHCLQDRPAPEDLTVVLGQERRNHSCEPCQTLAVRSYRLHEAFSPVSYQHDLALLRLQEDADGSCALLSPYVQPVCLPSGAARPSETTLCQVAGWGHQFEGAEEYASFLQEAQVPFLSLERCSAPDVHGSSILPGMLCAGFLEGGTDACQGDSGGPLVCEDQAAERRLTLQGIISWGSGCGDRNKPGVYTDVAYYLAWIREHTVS

T2: human FXIIa (Homo sapiens, UniProt P00748)
T2 construct: Factor XIIa, a beta-globulin plasma serine protease composed of an amino-terminal heavy chain and a carboxy-terminal light chain; purchased Enzyme Research Laboratories 1212a; host or cells: human plasma (said of the same vendor's proteins used as immunogen)
T2 sequence (P00748 20-372 limits assumed): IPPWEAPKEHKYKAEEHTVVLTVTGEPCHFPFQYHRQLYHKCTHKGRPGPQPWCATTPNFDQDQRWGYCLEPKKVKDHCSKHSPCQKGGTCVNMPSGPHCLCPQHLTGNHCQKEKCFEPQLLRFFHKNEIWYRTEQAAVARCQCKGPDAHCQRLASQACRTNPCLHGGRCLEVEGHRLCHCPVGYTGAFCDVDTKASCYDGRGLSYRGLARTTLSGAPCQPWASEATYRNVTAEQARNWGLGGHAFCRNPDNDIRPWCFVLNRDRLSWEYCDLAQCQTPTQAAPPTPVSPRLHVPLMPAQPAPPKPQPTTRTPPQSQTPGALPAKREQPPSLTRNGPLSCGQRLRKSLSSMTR
T2 sequence (P00748 373-615 limits assumed): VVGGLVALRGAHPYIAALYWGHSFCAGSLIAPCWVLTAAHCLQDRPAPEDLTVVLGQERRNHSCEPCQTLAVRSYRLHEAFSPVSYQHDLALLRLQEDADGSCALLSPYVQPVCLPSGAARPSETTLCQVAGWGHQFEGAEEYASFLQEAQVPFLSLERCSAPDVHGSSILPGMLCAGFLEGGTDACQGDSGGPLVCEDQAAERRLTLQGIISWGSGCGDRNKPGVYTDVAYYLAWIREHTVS


Columns and labels:
[1] = biological target: T1, human FXII; assay: Surface plasmon resonance (Biacore 4000) binding kinetics, hFXII
[2] = biological target: T2, human FXIIa; assay: Surface plasmon resonance (Biacore 4000) binding kinetics, hFXIIa

Molecule	100 nM Ag Bound (RU) ([1]; 25° C.)	100 nM Ag Bound (RU) ([1]; 37° C.)	100 nM Ag Bound (RU) ([2]; 25° C.)	100 nM Ag Bound (RU) ([2]; 37° C.)
mAb26049: fully human anti-FXII/FXIIa monoclonal antibody, HCVR/LCVR SEQ ID NOs: 34/42 (antibody, V domains shown) VH: EVQLVESGGDLVQPGGSLRLSCAASGFTFNTYAMHWVRQAPGKGLEYISAIDTKGGSTYYADSVKGRFTISRDNSKNAQYLQMDSLRVEDMAVYYCARGFGLDVWGQGTTVTVSS VL: DVVMTQSPLSLAVTLGQPASISCRSSQSLGYSDGNTYLNWFQQRPGQSPRRLIYKVSNRDSGVPDRFSGSGSGTDFTLKINRVETVDVGVYYCMQATHWPYTFGQGTKLEIK	134.6	178.5	162.4	251.5
mAb26048: fully human anti-FXII/FXIIa monoclonal antibody, HCVR/LCVR SEQ ID NOs: 18/26 (antibody, V domains shown) VH: EVQLVESGGGLVQPRGSLRLSCVASGFTFSDYGMSWVRQAPGKGLEWVSVIGGAGHGTYYADSVKGRFTISRDNSRNTLYLQMNSLRDEDTAVYYCAKKYYWNYVGGMDVWGRGTTVTVSS VL: DIQMTQSPSSVSASVGDRVTITCRASQDINNWLAWYQQKPGKAPKLLISTASSLQSGVPSRFSGSGSGTDFTLTISSLQPEDFATYYCQQANSLPFTFGPGTKVDIK	327.5	400.6	267.8	335.6
mAb26036: fully human anti-FXII/FXIIa monoclonal antibody, HCVR/LCVR SEQ ID NOs: 2/10 (antibody, V domains shown) VH: QVQLVQSGAEVKKPGASVTVSCKASGYTFTSYYLHWVRQAPGQGLEWMGIINPSGGSTSYAQKFQGRVTMTRDTSTSTVYMELSSLRSEDTAVYYCARGVTTVTTYYHYYNMDVWGQGTTVTVSS VL: DIQMTQSPSSLSASVGDRVTITCRASQGISNYLAWFQQKPGKAPKSLIYAASSLQSGVPSKFSGSGSGTDFTLTISSLQPEDFATYYCQKYNTYPLTFGGGTKVEIK	146.2	272.3	89.9	166.52
